Assay results: patent US20040139485A1 (US Dept. of Health and Human Services, published 2004)

B1: pRb (retinoblastoma gene product), endogenous in rat liver epithelial cell extracts (other)
chain: PPKAPRRTAAAEPPPPPPPPPEDDPAQDSDPEELPLIRLEFEKIEEPEFIALCQKLKVPDHVRERAWLTWEKVSSVDGILEGYIQKKKELWGICIFIAAVDLDEMPFTFTELQKSIETSVYKFFDLLKEIDTSTKVDNAVSRLLKKYNVLCALYSKLERTCGLIYLTQPSSGLSTEINSMLVLKVSWITFLLAKGEVVQMEDDLVISFQLMLCVLDYFIKLSPPALLREPYKTAATPINGSPRTPRRGQNRSARIAKQLESDTRTIEVLCKEHECNVDEVKNVYFKNFIPFISSLGIVSSNGLPELESLSKRYEEVYLKSKDLDARLFLDHDKTLQTDTIDSFETERTPRKSNPDEEANMVTPHTPVRTVMNTIQQLMVILNSASDQPSENLISYFSNCTVNPKENILKRVKDVGHIFKEKFASAVGQGCIDIGAQRYKLGVRLYYRVMESMLKSEEERLSIQNFSKLLNDNIFHMSLLACALEVVMATYSRSMLQNLDSGTDLSFPWILNVLNLKAFDFYKVIESFIKVEANLTREMIKHLERCEHRIMESLAWLSDSPLFDLIKQSKDGEGPDHLESACSLSLPLQSNHTAADMYLSPIRSPKKRTSTTRVNSAANTETQAASAFHTQKPLKSTSLSLFYKKVYRLAYLRLNTLCARLLSDHPELEHIIWTLFQHTLENEYELMKDRHLDQIMMCSMYGICKVKNIDLKFKIIVTAYKDLPHAAQETFKRVLIREEEFDSIIVFYNSVFMQRLKTNILQYASTRPPTLSPIPHIPRSPYKFSSSPLRIPGGNIYISPLKSPYKISEGLPTPTKMTPRSRILVSIGESFGTSEKFQKINQMVCNSDRVLKRSAEGGNPPKPLKKLRFDIEGSDEADGSKHLPAESKFQQKLAEMTSTRTRMQKQKLNDSMEISNKEEK
B2: BOG-MBP chimeric protein (complete rBOG fused to the carboxy-terminal of maltose binding protein, pMAL-P2-BOG) (other, not shown: large carriers)
chain: MVSPTKAVIVPGNGGGDVATHGWYGWVRKGLEQIPGFQCLAKNMPDPITARESIWLPFMETELHCDEKTIIIGHSSGAIAAMRYAETHQVYALILVSAYTSDLGDENERASGYFSRPWQWEKIKANCPHIIQFGSTDDPFLPWKEQQEVADSWTPNCTNSLTVVTFRTQSSMN
notes: Any vector-encoded linker between MBP and BOG is not described; also called fusion protein BOG-MBP; chimeric BOG-MBP

Tests used:
[1] = molecular target: maltose binding protein without BOG (UniProt P0AEX9 27-392 = MBP); test: precipitation from whole cell lysates with amylose-purified protein
[2] = molecular target: B1; test: precipitation of pRb from whole cell lysates by amylose-purified BOG-MBP

binding result [1] | binding result [2] | Binder
no binding | – | B1
– | binds | B2
